Assay [1] addresses human α-CGRP K35A (19-37) (human). Description: Biacore 25 C, Fab over peptide on SA chip; KD ratio to parent 19-37.
For assay [2], the target named is human α-CGRP V32A (25-37) (human). In words: Biacore 25 C, Fab over peptide on SA chip; KD ratio to parent 25-37. On the technique in general: SPR reads the build-up and loss of mass on a sensor chip optically.
The target of assay [3] is human α-CGRP P29A (25-37) (human). The assay is described as above.
The target in assay [4] is human α-CGRP V28A (25-37) (human). The assay is described as above.
Assay [5] concerns the target human α-CGRP G33A (25-37) (human). The description is as above.
Assay [6] has as its target human α-CGRP S34A (25-37) (human). The assay is described as above.
In assay [7] the target is human α-CGRP T30A (25-37) (human). Described as above.
For assay [8], the target named is human α-CGRP N31A (25-37) (human). The description is as above.
For assay [9], the target named is human α-CGRP F27A (25-37) (human). Described as above.

In the case of anti-CGRP antibody 4901, Fab fragment, the KD (mutant/parent) worked out at 0.3 in assay [1]; 0.9 in assay [2]; 0.2 in assay [3]; 0.8 in assay [4]; 1.3 in [5]; 0.8 in [6]. The figures for the KD (mutant/parent) in assay [7], in assay [8] and in assay [9] were 0.2, 0.3 and 0.8, respectively.

Source of the values: patent publication US20200331991A1.
